# “And” between values parts separate entries of the source, which are not always exact repeats. Equal values may be shown once.
# B1: African swine fever virus p15 (mature protein p15, wild type) (natural protein)
# chain: MPSNMKQFCKISVWLQQHDPDLLEIINNLCMLGNLSAAKYKHGVTFIYPKQAKIRDEIKKHAYSNDPSQAIKTLESLILPFYIPTPAEFTGEIGSYTGVKLEVEKTEANKVILKNGEAVLVPAADFKPFPDRRLAVWIMESGSMPLEGPPYKRKKEGG
# Target: the molecule itself
# Test: crystal structure
protein,measurement,value
B1,stoichiometry N,2 and 6

# — PMC7381529 (Protein & Cell, 2020)
